# Source: US20170253670A1 (Hoffmann-La Roche, published 2017)
# Values joined by “and” are separate entries in the source; they are usually repeats but may differ in a detail not shown here. Equal values may be shown once.
# T1: human BCMA on myeloma cells (H929, U266) (human, UniProt Q02223 1-184)
# T1 construct: whole, on cells
# T1 sequence (looked up): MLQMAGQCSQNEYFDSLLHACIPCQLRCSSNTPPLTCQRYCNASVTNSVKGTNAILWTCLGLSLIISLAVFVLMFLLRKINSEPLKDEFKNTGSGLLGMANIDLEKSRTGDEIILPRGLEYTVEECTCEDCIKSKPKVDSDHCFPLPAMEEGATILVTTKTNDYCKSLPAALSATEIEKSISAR
# T2: recombinant murine BCMA Fc(kih) (murine, UniProt O88472 2-49, biotinylated at the avi-tag of the Fc knob chain (not in the letters))
# T2 construct: also called muBCMA Fc(kih); not shown: human IgG1 hinge-Fc(knob)-avi and the unfused Fc(hole) chain
# T2 chain: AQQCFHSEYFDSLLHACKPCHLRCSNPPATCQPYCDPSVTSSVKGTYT
# T3: recombinant human BCMA Fc(kih) (human, UniProt Q02223 4-53, biotin on avi-tag where coupled to SA chip ; biotin on the avi-tag of the Fc-knob chain where coupled to the SA chip (tag not in the letters))
# T3 construct: also called huBCMA Fc(kih); huBCMA; not shown: human IgG1 hinge-Fc(knob)-avi fused to the ECD, and the unfused Fc(hole) chain
# T3 chain: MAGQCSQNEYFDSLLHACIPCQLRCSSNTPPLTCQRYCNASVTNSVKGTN
# T4: Fc fused huTACI-R (human, UniProt O14836 2-166, limits assumed)
# T4 construct: also called human TACI receptor
# T4 sequence (looked up): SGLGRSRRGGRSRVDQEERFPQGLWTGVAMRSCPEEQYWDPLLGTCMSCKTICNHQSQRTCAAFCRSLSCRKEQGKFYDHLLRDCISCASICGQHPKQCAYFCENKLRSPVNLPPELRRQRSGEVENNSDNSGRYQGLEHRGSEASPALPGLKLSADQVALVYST
# B1: DP47 GS TCB (2+1 Crossfab-IgG P329G LALA inverted, untargeted TCB) (bispecific antibody)
# heavy 1: not shown
# heavy 2: not shown
# light 1: not shown
# light 2: QAVVTQEPSLTVSPGGTVTLTCGSSTGAVTTSNYANWVQEKPGQAFRGLIGGTNKRAPGTPARFSGSLLGGKAALTLSGAQPEDEAEYYCALWYSNLWVFGGGTKLTVLSSASTKGPSVFPLAPSSKSTSGGTAALGCLVKDYFPEPVTVSWNSGALTSGVHTFPAVLQSSGLYSLSSVVTVPSSSLGTQTYICNVNHKPSNTKVDKKVEPKSC
# notes: negative control; also called DP47 TCB; DP47-TCB
# B2: pSCHLI372 anti-BCMA IgG (antibody, V domains shown)
# VH: EVQLVESGGGLVKPGGSLRLSCAASGFTFSNSGMIWVRQAPGKGLEWVGHIRSKTDGGTTDYAAPVKGRFTISRDDSKNTLYLQMNSLKTEDTAVYYCTTGGSGSFDYWGQGTLVTVSS
# VL: QAVVTQEPSLTVSPGGTVTLTCGSSTGAVTTSNYANWVQEKPGQAFRGLIGGTNKRAPGTPARFSGSLLGGKAALTLSGAQPEDEAEYYCALWYSNLWVFGGGTKLTVL
# notes: also called pSCHLI372 IgG; anti-BCMA IgG pSCHLI372
# B3: pSCHLI372-TCB CLC (bispecific antibody)
# heavy 1: not shown
# heavy 2: EVQLVESGGGLVKPGGSLRLSCAASGFTFSNSGMIWVRQAPGKGLEWVGHIRSKTDGGTTDYAAPVKGRFTISRDDSKNTLYLQMNSLKTEDTAVYYCTTGGSGSFDYWGQGTLVTVSSASTKGPSVFPLAPSSKSTSGGTAALGCLVKDYFPEPVTVSWNSGALTSGVHTFPAVLQSSGLYSLSSVVTVPSSSLGTQTYICNVNHKPSNTKVDKKVEPKSCDKTHTCPPCPAPEAAGGPSVFLFPPKPKDTLMISRTPEVTCVVVDVSHEDPEVKFNWYVDGVEVHNAKTKPREEQYNSTYRVVSVLTVLHQDWLNGKEYKCKVSNKALGAPIEKTISKAKGQPREPQVCTLPPSRDELTKNQVSLSCAVKGFYPSDIAVEWESNGQPENNYKTTPPVLDSDGSFFLVSKLTVDKSRWQQGNVFSCSVMHEALHNHYTQKSLSLSPGK
# light: QAVVTQEPSLTVSPGGTVTLTCGSSTGAVTTSNYANWVQEKPGQAFRGLIGGTNKRAPGTPARFSGSLLGGKAALTLSGAQPEDEAEYYCALWYSNLWVFGGGTKLTVLGQPKAAPSVTLFPPSSEELQANKATLVCLISDFYPGAVTVAWKADSSPVKAGVETTTPSKQSNNKYAASSYLSLTPEQWKSHRSYSCQVTHEGSTVEKTVAPTECS
# notes: also called pSCHLI372 BCMAxCD3 TCB
# B4: 14E4 Fab (Fab, V domains shown)
# VH: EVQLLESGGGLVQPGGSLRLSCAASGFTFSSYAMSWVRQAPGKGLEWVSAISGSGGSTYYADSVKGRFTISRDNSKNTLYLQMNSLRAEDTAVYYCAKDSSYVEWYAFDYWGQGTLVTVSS
# VL: EIVLTQSPGTLSLSPGERATLSCRASQSVSSSYLAWYQQKPGQAPRLLIYGASSRATGIPDRFSGSGSGTDSTLTISRLEPEDFAVYYCQQPTSSPITFGQGTKVEIK
# notes: as m51
# Experiments:
# [1] = biological target: T1, human BCMA on myeloma cells (H929, U266); experiment: flow cytometry on BCMA-positive H929 cells, PE anti-human Fc secondary antibody, median fluorescence intensity
# Method: (§1) Briefly, cultured cells are harvested, counted and cell viability was evaluated using ViCell. Viable cells are then adjusted to 2×10⁶ cells per ml in BSA-containing FACS Stain Buffer (BD Biosciences). 100 μl of this cell suspension were further aliquoted per well into a round-bottom 96-well plate and incubated with 30 μl of the BCMA-TCB CLC antibodies or corresponding TCB control for 30 min at 4° c. All BCMA-TCB CLC antibodies (and TCB controls) were titrated and analyzed in final concentration range between 0.12-500 nM. […] Cells were then washed twice with Stain Buffer (BD Biosciences), fixed using 100 ul BD Fixation buffer per well (#BD Biosciences, 554655) at 4° C. for 20 min, resuspended in 120 μl FACS buffer and analyzed using BD FACS CantoII.
# [2] = biological target: T5, human FolR1 on cells (HeLa, SKOV3, HT-29, transfected HEK) (human, UniProt P15328 25-234); experiment: flow cytometry, tumor cell panel
# T5 construct: whole, on cells
# [3] = biological target: T2, recombinant murine BCMA Fc(kih); experiment: SPR Biacore, binder captured via anti-Fab, BCMA-Fc analyte
# [4] = biological target: T3, recombinant human BCMA Fc(kih); experiment: as above
# [5] = biological target: T4, Fc fused huTACI-R; experiment: SPR (Biacore T200), Fc fused huTACI-R on CM5 chip, IgG as analyte, reference-subtracted
# [6] = biological target: T2, recombinant murine BCMA Fc(kih); experiment: SPR Biacore, bivalent avidity, BCMA-Fc on chip (Experiment 3)
# Method: (§2) Assessment of binding of anti-BCMA antibodies to recombinant BCMA by surface plasmon resonance (SPR) as follow. All SPR experiments were performed on a Biacore T200 at 25° C. with HBS-EP as running buffer (0.01 M HEPES pH 7.4, 0.15 M NaCl, 3 mM EDTA, 0.005% Surfactant P20, Biacore, Freiburg/Germany). The avidity of the interaction between anti-BCMA antibodies and recombinant BCMA Fc(kih) (human, cynomolgus and murine) was determined (Tables 38-40). Biotinylated recombinant human, cynomolgus and murine BCMA Fc(kih) were directly coupled on a SA chip following instructions (Biacore, Freiburg/Germany). The immobilization level ranged from 80 to 120 RU. […] The dissociation was monitored for 180 seconds. Bulk refractive index differences were corrected for by subtracting the response obtained on the reference flow cell. Here, the anti-BCMA antibodies were flown over an empty surface previously activated and deactivated as described in the standard amine coupling kit. Apparent kinetic constants were derived using the Biacore T200 Evaluation Software (v 1.0, Biacore AB, Uppsala/Sweden), to fit rate equations for 1:1 Langmuir binding by numerical integration, despite the bivalency of the interaction for comparison purposes.
# [7] = biological target: T3, recombinant human BCMA Fc(kih); experiment: as above
# Method: as §2
# [8] = biological target: T2, recombinant murine BCMA Fc(kih); experiment: SPR Biacore, bivalent avidity, BCMA-Fc on chip (Experiment 2)
# Method: as §2
# [9] = biological target: T3, recombinant human BCMA Fc(kih); experiment: as above
# Method: as §2
# [10] = biological target: T1, human BCMA on myeloma cells (H929, U266); experiment: cell-based or functional assay
# [11] = biological target: T1, human BCMA on myeloma cells (H929, U266); experiment: cell-based or functional assay; remark: listed apart in the source
# [12] = biological target: T1, human BCMA on myeloma cells (H929, U266); experiment: flow cytometry, H929 cells
# Method: as §1
# [13] = biological target: T6, murine FolR1 monovalent Fc fusion, biotinylated (murine, UniProt P35846 25-232, biotin on C-terminal Avi-tag ; Biotin on the C-terminal Avi-tag of the Fc-knob chain (that part is not in the letters).); experiment: SPR ProteOn, Fab analyte, antigen on chip
# T6 construct: as m1; also called muFolR1; murine FolR1-Fc; not shown: IgG hinge, Fc-knob and C-terminal Avi-tag fused to the ECD, and the co-expressed Fc-hole chain
# Method: Immobilization of antigens (ligand): Recombinant antigens were diluted with PBST (10 mM phosphate, 150 mM sodium chloride pH 7.4, 0.005% Tween 20) to 10 μg/ml, then injected at 30 μl/minute in vertical orientation. Injection of analytes: For ‘one-shot kinetics’ measurements, injection direction was changed to horizontal orientation, two-fold dilution series of purified Fab (varying concentration ranges) were injected simultaneously along separate channels 1-5, with association times of 150 or 200 s, and dissociation times of 200 or 600 s, respectively. Buffer (PBST) was injected along the sixth channel to provide an “in-line” blank for referencing. Association rate constants (kₒₙ) and dissociation rate constants (koff) were calculated using a simple one-to-one Langmuir binding model in ProteOn Manager v3.1 software by simultaneously fitting the association and dissociation sensorgrams. The equilibrium dissociation constant (KD) was calculated as the ratio koff/kₒₙ.
# T5 sequence (P15328 25-234): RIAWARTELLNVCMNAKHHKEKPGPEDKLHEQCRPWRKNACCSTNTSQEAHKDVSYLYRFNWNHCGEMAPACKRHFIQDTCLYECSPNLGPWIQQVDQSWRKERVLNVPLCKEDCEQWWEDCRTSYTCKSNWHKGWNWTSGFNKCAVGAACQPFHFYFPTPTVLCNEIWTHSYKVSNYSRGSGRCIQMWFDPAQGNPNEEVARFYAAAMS
# T6 sequence (P35846 25-232 limits assumed): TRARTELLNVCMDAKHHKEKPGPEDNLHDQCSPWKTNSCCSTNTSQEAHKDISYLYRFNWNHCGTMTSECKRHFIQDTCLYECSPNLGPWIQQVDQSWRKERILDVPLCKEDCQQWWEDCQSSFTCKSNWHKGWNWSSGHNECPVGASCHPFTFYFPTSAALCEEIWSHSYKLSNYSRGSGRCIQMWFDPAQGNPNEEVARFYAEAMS
binder,measurement,setting,value
B1,binding result,[1],no binding (tested: 500 nM)
same,binding result,[2],no binding
B2,Kd,[3],1310 nM
same,Kd,[4],114 nM
same,binding result,[5],no binding
same,Kd,[6],25.7 nM
same,Kd,[7],3.6 nM
same,Kd,[8],42.7 nM
same,Kd,[9],8.5 nM
B3,Kd,[3],344 nM
same,Kd,[4],63 nM
same,"EC50 redirected T-cell killing, U266",[10],5700 pM and 1.1 µg/ml
same,"EC50 redirected T-cell killing, H929 (Experiment 1)",[11],450 pM and 0.08 µg/ml
same,"EC50 redirected T-cell killing, H929 (Experiment 2)",[11],900 pM and 0.17 µg/ml
same,EC50,[12],345 nM and 65.9 µg/mL
B4,Kd,[13],6.09 nM
